22 substances from IntAct's records for PubMed 25910212 can be followed below.

Targets include cap2_human CAP2 (UniProt P40123); cof2_human CFL2 (UniProt Q9Y281); pnma1_human PNMA1 (UniProt Q8ND90); tfp11_human TFIP11 (UniProt Q9UBB9); shlb1_human SH3GLB1 (UniProt Q9Y371); dtx2_human DTX2 (UniProt Q86UW9); reep6_human REEP6 (UniProt Q96HR9); praf1_human RABAC1 (UniProt Q9UI14); ldaf1_human LDAF1 (UniProt Q96B96); mdfi_human MDFI (UniProt Q99750); lzts2_human LZTS2 (UniProt Q9BRK4); trip6_human TRIP6 (UniProt Q15654); kra32_human KRTAP3-2 (UniProt Q9BYR7); gsto2_human GSTO2 (UniProt Q9H4Y5).

The target of a further test is T1, tmm79_human TMEM79 (UniProt Q9BSE2).
T1 sequence: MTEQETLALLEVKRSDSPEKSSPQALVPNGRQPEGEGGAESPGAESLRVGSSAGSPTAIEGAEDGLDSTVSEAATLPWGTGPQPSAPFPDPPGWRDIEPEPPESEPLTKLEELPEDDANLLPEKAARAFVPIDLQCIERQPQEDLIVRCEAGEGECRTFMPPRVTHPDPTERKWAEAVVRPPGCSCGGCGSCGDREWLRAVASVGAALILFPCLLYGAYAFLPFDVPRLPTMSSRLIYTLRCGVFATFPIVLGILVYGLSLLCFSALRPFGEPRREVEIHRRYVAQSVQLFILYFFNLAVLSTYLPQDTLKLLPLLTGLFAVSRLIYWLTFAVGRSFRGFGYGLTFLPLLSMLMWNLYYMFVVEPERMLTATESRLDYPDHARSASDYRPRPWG

In test [1] the target is T2, smim3_human SMIM3 (UniProt Q9BZL3).
T2 sequence: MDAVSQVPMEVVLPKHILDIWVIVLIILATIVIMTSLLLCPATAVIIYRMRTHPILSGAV

Test [2] concerns the target T2, smim3_human SMIM3. The source holds these as a separate data set.
A further test addresses T3, SYNE4, Q8N205-2.
T3 sequence: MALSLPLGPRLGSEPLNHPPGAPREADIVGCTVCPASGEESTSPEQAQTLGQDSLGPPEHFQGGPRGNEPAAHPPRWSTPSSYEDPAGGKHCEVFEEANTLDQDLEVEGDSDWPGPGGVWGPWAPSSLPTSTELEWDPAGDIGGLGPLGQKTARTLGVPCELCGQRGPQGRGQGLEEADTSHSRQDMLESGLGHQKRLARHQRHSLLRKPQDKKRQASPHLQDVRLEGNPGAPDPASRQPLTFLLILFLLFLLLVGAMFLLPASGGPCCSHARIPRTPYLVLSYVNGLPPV

ldaf1_human LDAF1, sequence (Q96B96 whole entry): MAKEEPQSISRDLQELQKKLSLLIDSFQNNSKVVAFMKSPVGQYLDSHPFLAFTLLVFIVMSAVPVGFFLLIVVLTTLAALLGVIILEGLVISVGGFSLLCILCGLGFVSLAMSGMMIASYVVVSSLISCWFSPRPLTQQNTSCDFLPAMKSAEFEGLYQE
pnma1_human PNMA1, sequence (Q8ND90 whole entry): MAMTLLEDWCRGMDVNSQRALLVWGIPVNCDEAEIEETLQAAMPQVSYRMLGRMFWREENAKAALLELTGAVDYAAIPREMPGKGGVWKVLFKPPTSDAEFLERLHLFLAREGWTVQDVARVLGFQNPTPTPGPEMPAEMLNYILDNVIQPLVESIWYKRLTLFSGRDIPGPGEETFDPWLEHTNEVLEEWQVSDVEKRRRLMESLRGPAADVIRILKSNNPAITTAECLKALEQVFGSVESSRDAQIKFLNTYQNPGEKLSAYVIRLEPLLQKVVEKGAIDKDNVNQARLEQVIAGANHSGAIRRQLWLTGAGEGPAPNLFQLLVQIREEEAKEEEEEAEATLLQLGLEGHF
dtx2_human DTX2, sequence (Q86UW9 whole entry): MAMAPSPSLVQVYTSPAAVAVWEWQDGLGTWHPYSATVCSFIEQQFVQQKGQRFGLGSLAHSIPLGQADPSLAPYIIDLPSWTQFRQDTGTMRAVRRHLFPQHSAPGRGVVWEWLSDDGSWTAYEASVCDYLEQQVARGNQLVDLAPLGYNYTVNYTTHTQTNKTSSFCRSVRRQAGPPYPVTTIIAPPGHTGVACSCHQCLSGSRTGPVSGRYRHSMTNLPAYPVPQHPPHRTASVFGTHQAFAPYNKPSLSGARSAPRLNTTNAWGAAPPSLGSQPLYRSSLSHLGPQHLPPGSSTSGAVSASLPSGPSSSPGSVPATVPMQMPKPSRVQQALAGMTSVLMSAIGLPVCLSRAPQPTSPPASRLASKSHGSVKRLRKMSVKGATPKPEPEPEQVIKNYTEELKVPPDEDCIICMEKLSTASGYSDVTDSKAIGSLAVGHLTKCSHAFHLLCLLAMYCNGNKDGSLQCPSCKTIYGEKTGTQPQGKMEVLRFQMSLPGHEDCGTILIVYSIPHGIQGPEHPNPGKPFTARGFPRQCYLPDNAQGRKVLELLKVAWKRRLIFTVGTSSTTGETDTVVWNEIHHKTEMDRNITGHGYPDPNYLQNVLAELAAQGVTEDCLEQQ
tfp11_human TFIP11, sequence (Q9UBB9 whole entry): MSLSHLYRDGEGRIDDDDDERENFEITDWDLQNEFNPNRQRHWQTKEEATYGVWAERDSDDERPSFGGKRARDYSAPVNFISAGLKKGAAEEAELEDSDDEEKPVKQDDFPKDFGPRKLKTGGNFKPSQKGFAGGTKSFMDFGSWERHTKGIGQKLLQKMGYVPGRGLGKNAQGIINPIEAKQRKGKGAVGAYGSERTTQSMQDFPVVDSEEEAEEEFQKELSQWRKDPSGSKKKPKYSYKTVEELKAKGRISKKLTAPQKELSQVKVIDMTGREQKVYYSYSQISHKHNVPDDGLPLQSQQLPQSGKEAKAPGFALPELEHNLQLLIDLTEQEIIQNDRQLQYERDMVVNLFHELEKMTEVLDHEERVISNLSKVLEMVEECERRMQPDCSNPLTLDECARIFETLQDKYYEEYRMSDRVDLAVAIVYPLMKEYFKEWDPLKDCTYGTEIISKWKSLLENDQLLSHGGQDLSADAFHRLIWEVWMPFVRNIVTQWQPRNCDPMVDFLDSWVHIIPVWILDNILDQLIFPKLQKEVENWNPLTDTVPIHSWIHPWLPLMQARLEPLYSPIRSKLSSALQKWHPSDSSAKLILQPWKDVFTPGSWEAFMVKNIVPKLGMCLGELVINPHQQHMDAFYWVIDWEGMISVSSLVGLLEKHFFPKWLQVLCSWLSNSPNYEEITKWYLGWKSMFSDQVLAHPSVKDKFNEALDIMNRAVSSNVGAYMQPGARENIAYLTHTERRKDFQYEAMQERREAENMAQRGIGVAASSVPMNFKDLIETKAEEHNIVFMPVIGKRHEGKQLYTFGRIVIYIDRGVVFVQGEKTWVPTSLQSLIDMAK
AGTRAP, Q6RW13-2, sequence (Q6RW13 other isoform, or with tags, fused parts or gaps): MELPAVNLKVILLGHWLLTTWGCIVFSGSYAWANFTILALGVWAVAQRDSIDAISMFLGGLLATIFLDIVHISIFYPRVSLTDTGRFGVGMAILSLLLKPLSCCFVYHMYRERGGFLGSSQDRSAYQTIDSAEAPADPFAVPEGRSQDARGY
CMTM5, Q96DZ9-2, sequence (Q96DZ9 other isoform, or with tags, fused parts or gaps): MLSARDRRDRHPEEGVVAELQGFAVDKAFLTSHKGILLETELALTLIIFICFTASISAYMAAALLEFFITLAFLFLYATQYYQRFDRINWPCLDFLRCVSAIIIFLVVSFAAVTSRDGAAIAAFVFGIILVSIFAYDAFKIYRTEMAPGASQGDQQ
praf1_human RABAC1, sequence (Q9UI14 whole entry): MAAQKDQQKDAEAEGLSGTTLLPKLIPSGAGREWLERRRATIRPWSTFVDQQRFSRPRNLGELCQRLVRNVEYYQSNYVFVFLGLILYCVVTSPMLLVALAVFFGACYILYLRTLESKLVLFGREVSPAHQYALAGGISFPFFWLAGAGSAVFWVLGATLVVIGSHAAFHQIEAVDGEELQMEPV
shlb1_human SH3GLB1, sequence (Q9Y371 whole entry): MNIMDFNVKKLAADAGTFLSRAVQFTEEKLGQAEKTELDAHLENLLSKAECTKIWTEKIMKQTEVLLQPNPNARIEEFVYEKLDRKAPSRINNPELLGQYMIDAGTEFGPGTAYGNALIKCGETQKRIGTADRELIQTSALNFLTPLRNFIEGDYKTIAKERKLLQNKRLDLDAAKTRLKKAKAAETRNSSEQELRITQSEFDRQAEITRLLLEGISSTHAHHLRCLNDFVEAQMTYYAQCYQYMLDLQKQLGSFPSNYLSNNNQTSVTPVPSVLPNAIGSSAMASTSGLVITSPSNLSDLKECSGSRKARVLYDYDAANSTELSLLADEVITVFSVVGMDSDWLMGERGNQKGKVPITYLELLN
Erythroid transcription factor (Homo sapiens), P15976-2 D218G, sequence (P15976 other isoform, or with tags, fused parts or gaps D218G): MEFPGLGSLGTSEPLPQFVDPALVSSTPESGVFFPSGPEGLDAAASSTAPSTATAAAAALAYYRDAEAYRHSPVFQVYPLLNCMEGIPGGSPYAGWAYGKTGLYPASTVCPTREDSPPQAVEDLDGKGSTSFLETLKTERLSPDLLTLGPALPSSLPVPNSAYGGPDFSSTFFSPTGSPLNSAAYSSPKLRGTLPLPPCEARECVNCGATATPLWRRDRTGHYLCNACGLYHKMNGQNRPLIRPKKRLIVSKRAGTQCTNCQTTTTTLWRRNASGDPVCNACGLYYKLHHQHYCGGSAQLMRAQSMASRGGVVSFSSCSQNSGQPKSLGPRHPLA
Erythroid transcription factor (Homo sapiens), P15976-2 G208R, sequence (P15976 other isoform, or with tags, fused parts or gaps G208R): as the sequence (P15976 other isoform, or with tags, fused parts or gaps D218G) above
TMEM239, Q8WW34-2, sequence (Q8WW34 44-195): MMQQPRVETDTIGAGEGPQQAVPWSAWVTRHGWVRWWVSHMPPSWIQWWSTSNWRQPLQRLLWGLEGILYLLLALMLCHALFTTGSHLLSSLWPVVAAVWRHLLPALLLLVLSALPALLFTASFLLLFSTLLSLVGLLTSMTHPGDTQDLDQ
gsto2_human GSTO2, sequence (Q9H4Y5 whole entry): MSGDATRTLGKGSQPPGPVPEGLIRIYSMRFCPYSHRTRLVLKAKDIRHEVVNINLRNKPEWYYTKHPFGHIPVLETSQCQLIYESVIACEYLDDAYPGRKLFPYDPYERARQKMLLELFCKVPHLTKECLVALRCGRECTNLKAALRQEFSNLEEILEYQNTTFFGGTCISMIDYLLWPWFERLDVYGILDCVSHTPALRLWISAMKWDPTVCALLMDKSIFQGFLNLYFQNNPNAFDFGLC
reep6_human REEP6, sequence (Q96HR9 whole entry): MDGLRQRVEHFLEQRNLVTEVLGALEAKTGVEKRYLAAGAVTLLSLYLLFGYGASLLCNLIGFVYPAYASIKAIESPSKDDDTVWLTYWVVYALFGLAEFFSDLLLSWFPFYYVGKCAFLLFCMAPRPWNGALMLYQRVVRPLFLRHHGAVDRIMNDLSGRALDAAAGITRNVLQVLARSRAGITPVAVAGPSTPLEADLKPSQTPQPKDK
UBQLN1, Q9UMX0-2, sequence (Q9UMX0 other isoform, or with tags, fused parts or gaps): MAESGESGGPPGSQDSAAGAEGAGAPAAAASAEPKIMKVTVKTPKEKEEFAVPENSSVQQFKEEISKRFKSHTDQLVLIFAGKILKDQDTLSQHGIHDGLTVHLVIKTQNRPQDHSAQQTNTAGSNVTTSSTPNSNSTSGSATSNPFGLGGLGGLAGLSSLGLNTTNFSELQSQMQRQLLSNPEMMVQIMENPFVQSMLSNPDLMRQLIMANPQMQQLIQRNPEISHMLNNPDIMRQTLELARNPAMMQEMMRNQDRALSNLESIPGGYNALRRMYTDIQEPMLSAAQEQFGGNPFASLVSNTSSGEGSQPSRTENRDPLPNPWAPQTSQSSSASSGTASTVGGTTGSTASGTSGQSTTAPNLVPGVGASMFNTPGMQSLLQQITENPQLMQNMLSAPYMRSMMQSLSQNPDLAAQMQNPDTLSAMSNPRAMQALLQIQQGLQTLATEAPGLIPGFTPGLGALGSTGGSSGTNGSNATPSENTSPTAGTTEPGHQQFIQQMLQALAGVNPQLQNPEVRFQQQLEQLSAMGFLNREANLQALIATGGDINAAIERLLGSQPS
kra32_human KRTAP3-2, sequence (Q9BYR7 whole entry): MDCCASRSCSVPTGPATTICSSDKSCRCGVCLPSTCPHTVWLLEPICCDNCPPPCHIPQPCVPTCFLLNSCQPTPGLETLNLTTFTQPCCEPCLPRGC
mdfi_human MDFI, sequence (Q99750 whole entry): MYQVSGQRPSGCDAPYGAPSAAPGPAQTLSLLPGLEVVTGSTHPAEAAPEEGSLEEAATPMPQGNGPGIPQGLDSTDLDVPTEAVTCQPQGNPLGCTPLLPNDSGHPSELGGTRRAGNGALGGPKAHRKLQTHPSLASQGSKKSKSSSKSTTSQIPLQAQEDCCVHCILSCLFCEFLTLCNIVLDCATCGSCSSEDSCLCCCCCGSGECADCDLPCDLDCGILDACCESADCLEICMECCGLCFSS

Consider “Actin, cytoplasmic 2 (Homo sapiens) (from UniProt P63261) I122V”, for which the “effect of a mutation on the interaction” value with cap2_human CAP2 and with cof2_human CFL2 was “disrupting interaction strength” in each case.
“Aprataxin (Homo sapiens), Q7Z2E3-7 A198V”: the “effect of a mutation on the interaction” value with pnma1_human PNMA1 was “with no effect”.
Same read-out and setting: the same measure for “Aprataxin (Homo sapiens), Q7Z2E3-7 H228R”: “disrupting interaction strength”.
Same read-out and setting: the entry for “Aprataxin (Homo sapiens), Q7Z2E3-7 V263G” is “disrupting interaction strength”.
In the case of “Atypical kinase COQ8A, mitochondrial (Homo sapiens), Q8NI60 E551K”, the “effect of a mutation on the interaction” value with CMTM5, Q96DZ9-2 was “with no effect”; in the test with tfp11_human TFIP11 it was “disrupting interaction strength”; with shlb1_human SH3GLB1 it was “disrupting interaction strength”; with dtx2_human DTX2, “disrupting interaction strength”; with reep6_human REEP6, “disrupting interaction strength”; with praf1_human RABAC1, “disrupting interaction strength”. Also, the “effect of a mutation on the interaction” value in the test with TMEM239, Q8WW34-2 was “disrupting interaction strength”; in the test with AGTRAP, Q6RW13-2 it was “with no effect”; with ldaf1_human LDAF1, “disrupting interaction strength”.
Turning to “Atypical kinase COQ8A, mitochondrial (Homo sapiens), Q8NI60 G272V”, the “effect of a mutation on the interaction” value with CMTM5, Q96DZ9-2 was “with no effect”; in the test with tfp11_human TFIP11 it was “disrupting interaction strength”; in the test with shlb1_human SH3GLB1 it was “with no effect”; in the test with dtx2_human DTX2, “with no effect”; with reep6_human REEP6, “disrupting interaction strength”; with praf1_human RABAC1 it was “disrupting interaction strength”. The “effect of a mutation on the interaction” value is on record as “disrupting interaction strength” in the test with TMEM239, Q8WW34-2; “with no effect” with AGTRAP, Q6RW13-2; “disrupting interaction strength” with ldaf1_human LDAF1.
Take “Atypical kinase COQ8A, mitochondrial (Homo sapiens), Q8NI60 H80Y”: the “effect of a mutation on the interaction” value with CMTM5, Q96DZ9-2 was “with no effect”; with tfp11_human TFIP11, “with no effect”; with shlb1_human SH3GLB1 it was “with no effect”; with dtx2_human DTX2, “with no effect”; with reep6_human REEP6, “with no effect”; with praf1_human RABAC1, “with no effect”. Further, the “effect of a mutation on the interaction” value with TMEM239, Q8WW34-2 is recorded as “with no effect”; with AGTRAP, Q6RW13-2, “with no effect”; with ldaf1_human LDAF1 it was “with no effect”.
Take “Atypical kinase COQ8A, mitochondrial (Homo sapiens), Q8NI60 H85Q”: the “effect of a mutation on the interaction” value with CMTM5, Q96DZ9-2 is “with no effect”; with tfp11_human TFIP11 it was “with no effect”; with shlb1_human SH3GLB1, “with no effect”; with dtx2_human DTX2 it was “with no effect”; with reep6_human REEP6, “with no effect”; in the test with praf1_human RABAC1, “with no effect”. Besides, the “effect of a mutation on the interaction” value is on record as “with no effect” with TMEM239, Q8WW34-2; “with no effect” with AGTRAP, Q6RW13-2; “with no effect” with ldaf1_human LDAF1.
For “Atypical kinase COQ8A, mitochondrial (Homo sapiens), Q8NI60 R213W”, the “effect of a mutation on the interaction” value was “disrupting interaction strength” with CMTM5, Q96DZ9-2; “disrupting interaction strength” with tfp11_human TFIP11; “disrupting interaction strength” in the test with shlb1_human SH3GLB1; “disrupting interaction strength” in the test with dtx2_human DTX2; “disrupting interaction strength” with reep6_human REEP6; “disrupting interaction strength” with praf1_human RABAC1. In addition, the “effect of a mutation on the interaction” value was “disrupting interaction strength” with TMEM239, Q8WW34-2; “disrupting interaction strength” with AGTRAP, Q6RW13-2; “disrupting interaction strength” with ldaf1_human LDAF1.
With “Atypical kinase COQ8A, mitochondrial (Homo sapiens), Q8NI60 Y514C”, the “effect of a mutation on the interaction” value in the test with CMTM5, Q96DZ9-2 is given as “with no effect”; with tfp11_human TFIP11 it was “with no effect”; with shlb1_human SH3GLB1, “with no effect”; with dtx2_human DTX2, “with no effect”; with reep6_human REEP6 it was “with no effect”; in the test with praf1_human RABAC1, “with no effect”. For the same substance, the “effect of a mutation on the interaction” value in the test with TMEM239, Q8WW34-2 is on record as “with no effect”; in the test with AGTRAP, Q6RW13-2 it was “with no effect”; with ldaf1_human LDAF1, “with no effect”.
Regarding “Cytosolic 5'-nucleotidase 3A (Homo sapiens) (from UniProt Q9H0P0) C113R”, the “effect of a mutation on the interaction” value with UBQLN1, Q9UMX0-2 was “with no effect”.
As to “Cytosolic 5'-nucleotidase 3A (Homo sapiens) (from UniProt Q9H0P0) D137V”, the “effect of a mutation on the interaction” value with UBQLN1, Q9UMX0-2 was “with no effect”.
For “Cytosolic 5'-nucleotidase 3A (Homo sapiens) (from UniProt Q9H0P0) F36L”, the “effect of a mutation on the interaction” value in the test with UBQLN1, Q9UMX0-2 is on record as “with no effect”.
The same measure, in the same setting: the entry for “Cytosolic 5'-nucleotidase 3A (Homo sapiens) (from UniProt Q9H0P0) G207R” is “disrupting interaction strength”; for “Cytosolic 5'-nucleotidase 3A (Homo sapiens) (from UniProt Q9H0P0) G280R” it is “with no effect”.
For the substance “Erythroid transcription factor (Homo sapiens), P15976-2 D218G”, the “effect of a mutation on the interaction” value with mdfi_human MDFI, with lzts2_human LZTS2, with trip6_human TRIP6 and with kra32_human KRTAP3-2 was “with no effect” throughout.
On to “Erythroid transcription factor (Homo sapiens), P15976-2 G208R”, for which the “effect of a mutation on the interaction” value in the test with mdfi_human MDFI, with lzts2_human LZTS2, with trip6_human TRIP6 and in the test with kra32_human KRTAP3-2 was “with no effect” each time.
Regarding “Surfactant protein C (Homo sapiens) (from UniProt P11686) H64P”, the “effect of a mutation on the interaction” value is “with no effect” with tmm79_human TMEM79; “with no effect” with smim3_human SMIM3 [1]; “causing an interaction” with smim3_human SMIM3 [2]; “with no effect” with SYNE4, Q8N205-2.
For “Surfactant protein C (Homo sapiens) (from UniProt P11686) P30L”, the “effect of a mutation on the interaction” value is given as “with no effect” in the test with tmm79_human TMEM79; “with no effect” in the test with smim3_human SMIM3 [1]; “causing an interaction” in the test with smim3_human SMIM3 [2]; “with no effect” with SYNE4, Q8N205-2.
Take “Transcription factor AP-2-alpha (Homo sapiens), P05549-5 G256E”: the “effect of a mutation on the interaction” value with gsto2_human GSTO2 is given as “with no effect”.
Still for that read-out and setting: the same measure for “Transcription factor AP-2-alpha (Homo sapiens), P05549-5 R248W”: “with no effect”; for “Transcription factor AP-2-alpha (Homo sapiens), P05549-5 R249G”: “with no effect”.
